According to US20040097713:

Test system: GST-IRS-1 C-terminus fusion protein containing Ser1101
Sequence (chain, as listed by the source): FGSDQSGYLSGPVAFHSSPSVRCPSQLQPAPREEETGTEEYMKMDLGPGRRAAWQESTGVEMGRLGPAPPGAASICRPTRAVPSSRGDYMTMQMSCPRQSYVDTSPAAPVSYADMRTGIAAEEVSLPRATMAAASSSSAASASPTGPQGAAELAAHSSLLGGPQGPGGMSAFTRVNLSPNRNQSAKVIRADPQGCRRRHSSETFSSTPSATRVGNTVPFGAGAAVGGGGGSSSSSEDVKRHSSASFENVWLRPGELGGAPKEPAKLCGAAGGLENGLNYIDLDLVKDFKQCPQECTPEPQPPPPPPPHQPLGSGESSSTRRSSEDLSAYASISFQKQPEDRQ

| Substance | in vitro kinase reaction, phosphorylation at Ser1101 by Western blot |
| --- | --- |
| Akt kinase, active | The Akt kinase could not effectively phosphorylate IRS-1 at Ser1101, despite the occurrence of this residue within a putative Akt motif |
| protein kinase C theta, active, purified | PKC theta is the only PKC isoform that robustly phosphorylated the GST-IRS-1 fusion protein substrate at Ser1101 |
